Measured values reported in patent publication US20250345445A1, “ANTIBODY-DRUG CONJUGATE AND USE THEREOF” (CSPC MEGALITH BIOPHARMACEUTICAL CO., LTD., priority 2021, published 2025).
Where two headings read alike, the source gives them in different places. Marks after values point to notes of the source that are not given here. *1 amine or outer side, *2 acyl side, *3 side chain or, on linkers, in order; H or OH if unused. Where a SMILES comes first, the peptide text is derived from it. [ ]: non-standard residue; d: D form. The star is where a group is joined. Exatecan = CC[C@@]1(O)C(=O)OCc2c1cc1n(c2=O)Cc2c-1nc1cc(F)c(C)c3c1c2[C@@H](N*)CC3; Hexanoyl(6-maleimido) = O=C1C=CC(=O)N1CCCCCC(=O)*; X1 = C[C@@H](OCN[*:1])C(=O)[*:2]; X2 = O=C(COCCOCN[*:1])[*:2]

Columns and labels:
[1] = Assay 8: stability of linker-drug compounds; type: physicochemical; settings: high temperature, high humidity, illumination or 0.5% BSA-PBS; LC-MS/MS; Deruxtecan also studied
Procedure: Different linker-drug compounds such as Deruxtecan, JSSW-001, and ZW-002 were studied under high temperature (40° C., 60° C.), high humidity (25° C./75% RH and 25° C./92.5% RH), illumination (illuminance 4500 Lux, near-UV energy […]), or 0.5% BSA-PBS conditions. Samples were collected at different times after exposure to these conditions, and the concentration changes of the linker-drug compounds in the samples were detected using the LC-MS/MS method.

[2] = tested on: human colorectal cancer DiFi xenograft tumour; assay: Assay 16: efficacy of patritumab-ADC on DiFi xenograft tumour; type: in vivo, NU/NU mice; settings: Table 29: 10 mg/kg i.v./qw*3w
Excerpt: The assay was terminated on day 28 after the administration.

[3] = tested on: human lung adenocarcinoma PC9-GR (gefitinib-resistant cell) xenograft tumour; assay: Assay 3: efficacy of patritumab-ADC on PC9-GR xenograft tumour; type: in vivo, NU/NU mice; settings: 3 mg/kg i.v./qw*4 w
[4] = tested on: human colon cancer SW620 xenograft tumour; assay: Assay 15: efficacy of patritumab-ADC on SW620 xenograft tumour; type: in vivo, NU/NU mice; settings: 7 mg/kg i.v./single administration
Excerpt: The assay was terminated on day 26 after the administration. The inhibition effects of patritumab-DXD ADC (DAR=7.3) and patritumab-JSSW-001 ADC (DAR=7.36) on human colon cancer SW620 xenograft tumour in nude mice were compared.

[5] = more active than the common chemotherapy drug irinotecan; cited from earlier work
[6] = Phase Ib, cited from earlier work
[7] = early data published by the company; cited from earlier work
EGFR on MDA-MB-468 cells [8] = molecular target: T1, EGFR on MDA-MB-468 cells (human, UniProt P00533 25-1210); assay: flow cytometry on MDA-MB-468 cells, pH 7.4; ratio of EC50 to SWY2110
T1 construct: whole, on cells; also called epidermal growth factor receptor; HER1

EGFR on MDA-MB-468 cells [9] = molecular target: T1, EGFR on MDA-MB-468 cells; assay: flow cytometry on MDA-MB-468 cells, antibody diluted in PBS pH 7.4, FITC anti-human Fc
EGFR on MDA-MB-468 cells [10] = molecular target: T1, EGFR on MDA-MB-468 cells; assay: flow cytometry on MDA-MB-468 cells, pH 6.0; ratio of EC50 to SWY2110
EGFR on MDA-MB-468 cells [11] = molecular target: T1, EGFR on MDA-MB-468 cells; assay: flow cytometry on MDA-MB-468 cells, antibody diluted in PBS pH 6.0, FITC anti-human Fc

CC[C@@]1(O)C(=O)OCc2c1cc1n(c2=O)Cc2c-1nc1cc(F)c(C)c3c1c2[C@@H](NC(=O)COCCOCNC(=O)CNC(=O)[C@H](Cc1ccccc1)NC(=O)CNC(=O)CNC(=O)CCCCCN1C(=O)C=CC1=O)CC3 [ZW-002, N—((S)-13-benzyl-1-(((1S,9S)-9-ethyl-5-fluoro-9-hydroxy-4-methyl-10,13-dioxo-2,3,9,10,13,15-hexahydro-1H,12H-benzo[de]pyrano[3′,4′:6,7]indolizino[1,2-b]quinolin-1-yl)amino)-1,9,12,15,18-pentaoxo-3,6-dioxa-8,11,14,17-tetraazanonadecan-19-yl)-6-(2,5-dioxo-2,5-dihydro-1H-pyrrol-1-yl)hexanamide] ({Hexanoyl(6-maleimido)}-GGFG[X2]-Exatecan)
stability of linker-drug compound [1]: better stability

patritumab-DXD ADC (DAR = 7.3): patritumab antibody conjugated with commercially available Deruxtecan [reference compound]
Tumour Volume ([2]; 28 days after administration): 512.5 ± 470.8* mm^3
TGI(%) Day 28 [2]: 54.0%
TGI(%) Day 28 [3]: 59.5%
Tumour Volume ([3]; 28 days after administration): 373.4 ± 102.8** mm^3
TGI(%) Day 21 [4]: 73.2%
Tumour Volume ([4]; 21 days after administration): 461.3 ± 278.1*** mm^3

CC[C@@]1(O)C(=O)OCc2c1cc1n(c2=O)Cc2c-1nc1cc(F)c(C)c3c1c2[C@@H](NC(=O)CO)CC3 [DXd]
activity relative to irinotecan [5]: 10 times

MRG003
objective response rate (ORR) ([6]; patients with nasopharyngeal carcinoma (4/9)): 44%
objective response rate (ORR) ([6]; patients with non-small cell lung cancer (4/10)): 40%

CC[C@@]1(O)C(=O)OCc2c1cc1n(c2=O)Cc2c-1nc1cc(F)c(C)c3c1c2[C@@H](NC(=O)[C@@H](C)OCNC(=O)CNC(=O)[C@H](Cc1ccccc1)NC(=O)CNC(=O)CNC(=O)CCCCCN1C(=O)C=CC1=O)CC3 [JSSW-001, N-((2R,10S)-10-benzyl-1-(((1S,9S)-9-ethyl-5-fluoro-9-hydroxy-4-methyl-10,13-dioxo-2,3,9,10,13,15-hexahydro-1H,12H-benzo[de]pyrano[3′,4′:6,7]indolizino[1,2-b]quinolin-1-yl)amino)-2-methyl-1,6,9,12,15-pentaoxo-3-oxa-5,8,11,14-tetraazahexadecan-16-yl)-6-(2,5-dioxo-2,5-dihydro-1H-pyrrol-1-yl)hexanamide] ({Hexanoyl(6-maleimido)}-GGFG[X1]-Exatecan)
stability of linker-drug compound [1]: better stability

B1: BA3011 (conjugate, chains of the INN, looked up)
VH: EVQLVQSGAEVKKPGATVKISCKVSGYSFWGATMNWIRQPPGKGLEWIGLIKPSNGGTSYNQKFKGRVTISADKSISTAYLQWSSLKASDTAMYYCAHGHYESYEAMDYWGQGTLVTVSS
VL: DIQMTQSPSSLSASVGDRVTITCKASQDVVSAVAWYQQKPGQAPRLLIYWQDTRHTGVPSRFSGSGSGTEFTLTISSLQPDDFATYYCQEHFSPPLTFGQGTKVEIK
modifications: vedotin (MMAE) payload
target-related toxicity [7]: no obvious target-related toxicity

B2: BA3021 (conjugate, chains of the INN, looked up)
VH: EVQLVQSGAEVKKPGESLRISCKGSGYTFTEYTMHWVRQAPGQGLEWMGGINTNNGGTGYNQKFKGRVTISADKSISTAYLQWSSLKASDTAMYYCAHGSLYSYGNSYFDYWGQGTLVTVSS
VL: AIQLTQSPSSLSASVGDRVTITCSATSSVSYMHWYLQKPGQSPQLLIYGTSNLASGVPDRFSGSGSGTDFTLKISRVEAEDVGVYYCQQRSSYPFTFGQGTKVEIK
modifications: vedotin (MMAE) payload
target-related toxicity [7]: no obvious target-related toxicity

B3: EGFR antibody SWY2111 (antibody, human IgG1, kappa, V domains shown)
VH: QVQLQESGPGLVKPSETLSLTCTVSGFSLSDYDVHWVRQAPGKGLEWLGVIWSGGNTDYNTPFTSRLTISVDTSKNQFSLKLSSVTAADTAVYYCARALDDYDYEFAYWGQGTLVTVSS
VL: EIVLTQSPDFQSVTPKEKVTITCRASQSIGTNIHWYQQKPDQSPKLLIKYASESISGIPSRFSGSGSGTDFTLTINSLEAEDAATYYCQQNNEWPTSFGQGTKLEIKR
fold decrease of affinity compared to SWY2110 (EGFR on MDA-MB-468 cells [8]): 3 times
EC50 (EGFR on MDA-MB-468 cells [9]): 1.45 nM
fold change of affinity compared to SWY2110 (EGFR on MDA-MB-468 cells [10]): 1.2 to 1.3 times
EC50 (EGFR on MDA-MB-468 cells [11]): 0.6 nM

B4: EGFR antibody SWY2113 (antibody, human IgG1, kappa, V domains shown)
VH: QVQLQESGPGLVKPSETLSLTCTVSGFSLSHYDVHWVRQAPGKGLEWLGVIWSGGNTDYNTPFTSRLTISVDTSKNQFSLKLSSVTAADTAVYYCARALDDYDYEFAYWGQGTLVTVSS
VL: EIVLTQSPDFQSVTPKEKVTITCRASQSIGTNIHWYQQKPDQSPKLLIKYASESISGIPSRFSGSGSGTDFTLTINSLEAEDAATYYCQQNNEWPTSFGQGTKLEIKR
fold decrease of affinity compared to SWY2110 (EGFR on MDA-MB-468 cells [8]): 3 to 9.7 times
EC50 (EGFR on MDA-MB-468 cells [9]): 4.76 nM
fold decrease of affinity compared to SWY2110 (EGFR on MDA-MB-468 cells [10]): 6.6 times
EC50 (EGFR on MDA-MB-468 cells [11]): 3.39 nM

B5: EGFR antibody SWY2112 (antibody, human IgG1, kappa, V domains shown)
VH: QVQLQESGPGLVKPSETLSLTCTVSGFSLSEYDVHWVRQAPGKGLEWLGVIWSGGNTDYNTPFTSRLTISVDTSKNQFSLKLSSVTAADTAVYYCARALDDYDYEFAYWGQGTLVTVSS
VL: EIVLTQSPDFQSVTPKEKVTITCRASQSIGTNIHWYQQKPDQSPKLLIKYASESISGIPSRFSGSGSGTDFTLTINSLEAEDAATYYCQQNNEWPTSFGQGTKLEIKR
EC50 (EGFR on MDA-MB-468 cells [9]): 2.35 nM
fold change of affinity compared to SWY2110 (EGFR on MDA-MB-468 cells [10]): 1.2 to 1.3 times
EC50 (EGFR on MDA-MB-468 cells [11]): 0.67 nM
